B1: F1*; the commonest letter at each place (parent)
chain: GAGACCGCAACTGAAAAGTTGTTATCACTTGTCGTAAGACACTTTGGATGGGTTGAAGTTCTGCACGTAGAAGCAAAAGGC

Variants of: B1
Assay: fraction ligated after 30 min (ligated reads / total reads); higher = more ligase activity
Conditions: with F1*sub RNA substrate (template-directed ligation), 42 °C
Description: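 Chip-synthesised pool of F1* ligase ribozyme variants (all single and double substitutions, single, double and triple deletions in the catalytic core and GAA bulge, plus designed variants) was transcribed with T7 and reacted as a pool with excess substrate F1*sub for 30 min at 42 C in 50 mM EPPS pH 8.5, 25 mM MgCl2. Ligated and unligated bands were separated by PAGE, barcoded by RT and deep sequenced; fraction ligated = ligated reads / total reads per variant, relative activity = FL / FL of wild type (0.826). Sequences are the DNA template of the ribozyme.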

Going from C26A T32G to C26A T32A, the fraction ligated falls from 0.499 to 0.48.

First: C26A T32C
Second: C26A A56T
The fraction ligated of the first is higher: 0.545 for the first, 0.14 for the second.

First: C26A A56C
Second: C26A A56G
The fraction ligated of the first is lower: 0.0368 for the first, 0.096 for the second.

Going from T25G T43G to T25G T43C, the fraction ligated falls from 0.515 to 0.409.

Going from T25G T43A to C26A A36G, the fraction ligated rises from 0.684 to 0.781.

Compared with C26A A36C, C26A A36T is higher in fraction ligated: 0.79 for the first, 0.823 for the second.

First: A27C
Second: C26G T32A
The fraction ligated of the first is higher: 0.81 for the first, 0.238 for the second.

Compared with C26G T32C, C26G T32G is lower in fraction ligated: 0.245 for the first, 0.125 for the second.

Compared with C26T A36G, C26T A36T is lower in fraction ligated: 0.828 for the first, 0.827 for the second.

First: C26T A36C
Second: C26T G34T
The fraction ligated of the first is lower: 0.788 for the first, 0.812 for the second.

First: C26T G34C
Second: C26T G34A
The fraction ligated of the first is higher: 0.855 for the first, 0.832 for the second.

First: C26G G38A
Second: C26G G38C
The fraction ligated of the first is higher: 0.446 for the first, 0.00552 for the second.

First: C26G G38T
Second: C26A T43G
The fraction ligated of the first is lower: 0.0811 for the first, 0.547 for the second.

First: C26A T43A
Second: C26A T43C
The fraction ligated of the first is higher: 0.809 for the first, 0.755 for the second.

Compared with C26A G38A, C26A G38T is higher in fraction ligated: 0.774 for the first, 0.793 for the second.

Going from C26A G38C to T25G T45G, the fraction ligated falls from 0.313 to 0.0229.

Going from T25G T45C to T25G T45A, the fraction ligated rises from 0.0153 to 0.0602.

Going from C26A A37T to C26A A37C, the fraction ligated falls from 0.797 to 0.781.

Compared with C26A A37G, C26T C33T is higher in fraction ligated: 0.785 for the first, 0.829 for the second.

First: C26T C33A
Second: C26T C33G
The fraction ligated of the first is lower: 0.798 for the first, 0.819 for the second.

Compared with A27C T29C, A27C T29A is higher in fraction ligated: 0.802 for the first, 0.818 for the second.

Going from A27C T29G to C26T T49A, the fraction ligated falls from 0.797 to 0.392.

First: C26T T49G
Second: C26T T49C
The fraction ligated of the first is higher: 0.405 for the first, 0.122 for the second.

Going from C26A G47T to C26A G47A, the fraction ligated rises from 0.235 to 0.762.

Compared with C26A G47C, C26G T43C is higher in fraction ligated: 0.0466 for the first, 0.689 for the second.

Compared with C26G T43G, C26G T43A is higher in fraction ligated: 0.479 for the first, 0.783 for the second.

Going from C26T T44A to C26T T44C, the fraction ligated falls from 0.845 to 0.822.

First: C26T T44G
Second: C26G C33T
The fraction ligated of the first is higher: 0.836 for the first, 0.738 for the second.

Going from C26G C33G to C26G C33A, the fraction ligated falls from 0.754 to 0.473.

First: C26A A57G
Second: C26A A57C
The fraction ligated of the first is higher: 0.804 for the first, 0.717 for the second.

Compared with C26A A57T, C26A is higher in fraction ligated: 0.738 for the first, 0.788 for the second.

First: C26T
Second: C26G
The fraction ligated of the first is higher: 0.836 for the first, 0.773 for the second.

Compared with A27C A57G, A27C A57T is higher in fraction ligated: 0.773 for the first, 0.807 for the second.

Compared with A27C A57C, C26T T45A is lower in fraction ligated: 0.787 for the first, 0.779 for the second.

Compared with C26T T45G, C26T T45C is higher in fraction ligated: 0.28 for the first, 0.524 for the second.

First: C26G A41G
Second: C26G A41C
The fraction ligated of the first is higher: 0.716 for the first, 0.0431 for the second.

Going from C26G A41T to A27C G50C, the fraction ligated falls from 0.459 to 0.0749.

Going from A27C G50T to A27C G50A, the fraction ligated falls from 0.37 to 0.18.

Compared with C26T G50T, C26T G50A is lower in fraction ligated: 0.238 for the first, 0.0828 for the second.

Going from C26T G50C to C26G A39C, the fraction ligated rises from 0.0206 to 0.123.

Going from C26G A39T to C26G A39G, the fraction ligated rises from 0.493 to 0.755.

First: C26A G50T
Second: C26A G50C
The fraction ligated of the first is higher: 0.0739 for the first, 0.0201 for the second.

First: C26A G50A
Second: C26A T44G
The fraction ligated of the first is lower: 0.0155 for the first, 0.78 for the second.

First: C26A T44A
Second: C26A T44C
The fraction ligated of the first is higher: 0.792 for the first, 0.782 for the second.

Compared with C26G G31C, C26G G31T is lower in fraction ligated: 0.176 for the first, 0.0375 for the second.

Going from C26G G31A to A27C C40G, the fraction ligated rises from 0.165 to 0.783.

First: A27C C40T
Second: A27C C40A
The fraction ligated of the first is higher: 0.818 for the first, 0.817 for the second.

Going from C26A T35C to C26A T35A, the fraction ligated falls from 0.807 to 0.803.

First: C26A T35G
Second: A27C G55C
The fraction ligated of the first is higher: 0.794 for the first, 0.355 for the second.

Compared with A27C G55T, A27C G55A is higher in fraction ligated: 0.792 for the first, 0.805 for the second.

Compared with C26A C28G, C26A C28T is higher in fraction ligated: 0.395 for the first, 0.584 for the second.

Going from C26A C28A to C26G T29G, the fraction ligated rises from 0.64 to 0.778.

First: C26G T29C
Second: C26G T29A
The fraction ligated of the first is lower: 0.749 for the first, 0.789 for the second.

Going from C26A G31A to C26A G31T, the fraction ligated falls from 0.261 to 0.0438.

First: C26A G31C
Second: C26A C33T
The fraction ligated of the first is lower: 0.226 for the first, 0.829 for the second.

Compared with C26A C33A, C26A C33G is higher in fraction ligated: 0.721 for the first, 0.792 for the second.

First: C26G A48T
Second: C26G A48G
The fraction ligated of the first is lower: 0.00571 for the first, 0.058 for the second.

First: C26G A48C
Second: C26A G55C
The fraction ligated of the first is higher: 0.104 for the first, 0.0379 for the second.

Going from C26A G55T to C26A G55A, the fraction ligated rises from 0.249 to 0.618.

Compared with C26G T49C, C26G T49G is higher in fraction ligated: 0.0764 for the first, 0.371 for the second.

Going from C26G T49A to C26G T30C, the fraction ligated rises from 0.188 to 0.676.

Compared with C26G T30G, C26G T30A is higher in fraction ligated: 0.757 for the first, 0.8 for the second.

Compared with A27C G47A, A27C G47C is lower in fraction ligated: 0.799 for the first, 0.158 for the second.

Compared with A27C G47T, T25G T44G is higher in fraction ligated: 0.126 for the first, 0.474 for the second.

Going from T25G T44A to T25G T44C, the fraction ligated rises from 0.737 to 0.741.

Compared with T25G T49G, T25G T49A is lower in fraction ligated: 0.779 for the first, 0.723 for the second.

Going from T25G T49C to C26G C40T, the fraction ligated rises from 0.527 to 0.678.

First: C26G C40A
Second: C26G C40G
The fraction ligated of the first is lower: 0.248 for the first, 0.793 for the second.

Compared with A27C A37C, A27C A37G is higher in fraction ligated: 0.793 for the first, 0.817 for the second.

Going from A27C A37T to C26T A57T, the fraction ligated rises from 0.82 to 0.852.

First: C26T A57G
Second: C26T A57C
The fraction ligated of the first is higher: 0.86 for the first, 0.84 for the second.

Going from C26T C42T to C26T C42G, the fraction ligated falls from 0.837 to 0.795.

Compared with C26T C42A, A27C T32C is lower in fraction ligated: 0.804 for the first, 0.754 for the second.

First: A27C T32G
Second: A27C T32A
The fraction ligated of the first is lower: 0.78 for the first, 0.799 for the second.

Compared with A27C C42G, A27C C42A is lower in fraction ligated: 0.831 for the first, 0.818 for the second.

Compared with A27C C42T, C26T A37C is higher in fraction ligated: 0.816 for the first, 0.841 for the second.

First: C26T A37G
Second: C26T A37T
The fraction ligated of the first is lower: 0.841 for the first, 0.853 for the second.

Compared with T25G T29G, C26T T35C is higher in fraction ligated: 0.714 for the first, 0.792 for the second.

Going from C26T T35G to C26T T35A, the fraction ligated rises from 0.817 to 0.854.

Compared with A27C G46C, A27C G46T is lower in fraction ligated: 0.782 for the first, 0.78 for the second.

First: A27C G46A
Second: C26G A56C
The fraction ligated of the first is higher: 0.82 for the first, 0.0241 for the second.

Going from C26G A56G to C26G A56T, the fraction ligated rises from 0.0248 to 0.0342.

First: C26T C28T
Second: C26T C28G
The fraction ligated of the first is lower: 0.733 for the first, 0.768 for the second.

C26T C28A gave a fraction ligated of 0.795.
